From publication PMC3017548 come the findings set out here.

Common to all, as to test: filter binding
The test system of data set [1] is Gadd45a K45A (Xenopus tropicalis). Particulars: loss of discrimination between vector and total RNA in competition; 10 mM Tris-HCl pH 7.4, 10 mM KCl, 1 mM MgCl2; 2.5 or 1.3 uM protein, ~2 ng 32P-MCS RNA, 20 min; temperature not given; nitrocellulose filter.
Data set [2] relates to Gadd45a G39A (Xenopus tropicalis). Particulars: loss of discrimination between vector and total RNA in competition; 10 mM Tris-HCl pH 7.4, 10 mM KCl, 1 mM MgCl2; 2.5 or 1.3 uM protein, ~2 ng 32P-MCS RNA, 20 min; temperature not given; nitrocellulose filter.
For data set [3], the system named is Gadd45a R34G (Xenopus tropicalis). To be noted: 10 mM Tris-HCl pH 7.4, 10 mM KCl, 1 mM MgCl2; 2.5 or 1.3 uM protein, ~2 ng 32P-MCS RNA, 20 min; temperature not given; nitrocellulose filter.
Data set [4] relates to Gadd45a V49R (Xenopus tropicalis). Particulars: 10 mM Tris-HCl pH 7.4, 10 mM KCl, 1 mM MgCl2; 2.5 or 1.3 uM protein, ~2 ng 32P-MCS RNA, 20 min; temperature not given; nitrocellulose filter.

As for “MCS RNA (multiple cloning site transcript)”, the binding signal (fold of wild type binding (comparable)) in data set [1], in data set [2] and in data set [3] was 1 each time. In data set [4], this substance came in with a binding signal (fold of wild type binding) of 3.
